Test results reported in US20230034906A1 (TRINOMAB BIOTECH, published 2023).

Biological target: T1, HCMV gB glycoprotein of standard strain Towne (gB_Towne strain) (human cytomegalovirus, strain Towne, UniProt F5HB53 25-700)
T1 construct: also called antigen protein gB0049
Test: SPR (Biacore), antibody captured on anti-human IgG (Fc) CM5 chip, gB glycoprotein as analyte

B1: TRN1019 (antibody, V domains shown)
VH: QVQLVQSGAEVKKPGESLKISCKGSGYTFTNYWIGWVRQMPGAGLEWMAIIFPRDSYSAYSPSFQGRVTISVDKSISTAYLHWSSLEASDTAVYYCAIYNDLRSGNSWGQGTPLIVSS
VL: DIQMTQSPSSLSASVGDRVTITCRASQSITKYLNWYQQKPGRAPKLLIHTTSTLQSGVPSRFSGSGSGTDFTLTISSLQLEDFGTYYCQQSFSTLWTFGQGTKLDIKR
notes: Fully human antibody; kappa light chain
  binding result: binds
